Results reported in publication PMC10397247.
Where two headings read alike, the source gives them in different places.

T1: P2-AA-12HAA-K
T1 chain: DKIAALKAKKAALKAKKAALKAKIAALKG

T2: P2-AA-12HAA-T
T2 chain: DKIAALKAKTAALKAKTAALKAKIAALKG

T3: P2-AA-12HAA-D
T3 chain: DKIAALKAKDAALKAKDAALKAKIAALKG

T4: P2-AA-12HAA-S
T4 chain: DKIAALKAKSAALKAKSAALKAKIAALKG

T5: P2-AA-12HAA-V
T5 chain: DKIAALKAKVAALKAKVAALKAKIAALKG

T6: P2-AA-12HAA-I
T6 chain: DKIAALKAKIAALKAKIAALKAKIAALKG

T7: P2-AA
T7 chain: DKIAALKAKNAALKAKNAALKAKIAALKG

T8: P2-AA-12HAA-H
T8 chain: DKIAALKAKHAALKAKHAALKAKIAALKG

T9: P2-AA-12HAA-L
T9 chain: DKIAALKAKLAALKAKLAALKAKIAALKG

T10: P2-AA-12HAA-E
T10 chain: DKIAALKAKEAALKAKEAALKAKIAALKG

T11: P2-AA-12HAA-R
T11 chain: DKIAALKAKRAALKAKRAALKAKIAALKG

T12: P2-AA-12HAA-Y
T12 chain: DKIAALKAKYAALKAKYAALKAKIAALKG

T13: P2-AA-12HGe-W
T13 chain: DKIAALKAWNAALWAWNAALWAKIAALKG

T14: P9bHq
T14 chain: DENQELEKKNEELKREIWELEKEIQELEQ

T15: O9
T15 chain: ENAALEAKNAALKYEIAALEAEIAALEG

T16: O8
T16 chain: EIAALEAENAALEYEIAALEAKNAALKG

T17: O6
T17 chain: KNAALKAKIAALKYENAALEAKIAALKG

T18: O5
T18 chain: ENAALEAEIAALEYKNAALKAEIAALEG

T19: O7
T19 chain: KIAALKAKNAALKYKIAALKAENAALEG

T20: 4H87-AA
T20 chain: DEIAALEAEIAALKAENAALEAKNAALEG

T21: 4H510-AA
T21 chain: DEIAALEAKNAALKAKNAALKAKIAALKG

T22: 4H816-AA
T22 chain: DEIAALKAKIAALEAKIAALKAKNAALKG

T23: 4H775-AA
T23 chain: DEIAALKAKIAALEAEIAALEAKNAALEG

T24: 4H2758-AA
T24 chain: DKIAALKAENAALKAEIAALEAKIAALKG

T25: 4H3409-AA
T25 chain: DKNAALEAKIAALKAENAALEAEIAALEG

T26: 4H2985-AA
T26 chain: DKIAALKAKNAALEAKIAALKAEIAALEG

T27: 4H3940-AA
T27 chain: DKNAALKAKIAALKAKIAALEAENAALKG

T28: 4H3625-AA
T28 chain: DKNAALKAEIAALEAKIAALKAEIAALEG

T29: 4H390-AA
T29 chain: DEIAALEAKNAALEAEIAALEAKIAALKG

T30: 4H2873-AA
T30 chain: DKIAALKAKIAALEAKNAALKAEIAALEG

T31: 4H3134-AA
T31 chain: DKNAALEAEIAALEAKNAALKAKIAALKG

T32: 4H278-AA
T32 chain: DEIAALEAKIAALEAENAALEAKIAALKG


Columns and labels:
P2-AA-12HAA-K = target: T1, P2-AA-12HAA-K; assay: two-hybrid library CCmax; details: mean of both orientations;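 also: natural log of median RNA to DNA barcode read ratio; higher means stronger binding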
P2-AA-12HAA-T = target: T2, P2-AA-12HAA-T; assay: two-hybrid library CCmax; details: mean of both orientations;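 also: natural log of median RNA to DNA barcode read ratio; higher means stronger binding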
P2-AA-12HAA-D = target: T3, P2-AA-12HAA-D; assay: two-hybrid library CCmax; details: mean of both orientations;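 also: natural log of median RNA to DNA barcode read ratio; higher means stronger binding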
P2-AA-12HAA-S = target: T4, P2-AA-12HAA-S; assay: two-hybrid library CCmax;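 also: natural log of median RNA to DNA barcode read ratio; higher means stronger binding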
P2-AA-12HAA-V = target: T5, P2-AA-12HAA-V; assay: two-hybrid library CCmax; details: mean of both orientations;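 also: natural log of median RNA to DNA barcode read ratio; higher means stronger binding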
P2-AA-12HAA-I = target: T6, P2-AA-12HAA-I; assay: two-hybrid library CCmax; details: mean of both orientations;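 also: natural log of median RNA to DNA barcode read ratio; higher means stronger binding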
P2-AA = target: T7, P2-AA; assay: two-hybrid library CCmax; details: mean of both orientations
P2-AA-12HAA-H = target: T8, P2-AA-12HAA-H; assay: two-hybrid library CCmax
P2-AA-12HAA-L = target: T9, P2-AA-12HAA-L; assay: two-hybrid library CCmax
P2-AA-12HAA-E = target: T10, P2-AA-12HAA-E; assay: two-hybrid library CCmax
P2-AA-12HAA-R = target: T11, P2-AA-12HAA-R; assay: two-hybrid library CCmax
P2-AA-12HAA-Y = target: T12, P2-AA-12HAA-Y; assay: two-hybrid library CCmax; details: mean of both orientations
P2-AA-12HGe-W = target: T13, P2-AA-12HGe-W; assay: two-hybrid library CCmax
P9bHq = target: T14, P9bHq; assay: two-hybrid library CCNG1
O9 = target: T15, O9; assay: two-hybrid library CC0; details: mean of both orientations
O8 = target: T16, O8; assay: two-hybrid library CC0; details: mean of both orientations
O6 = target: T17, O6; assay: two-hybrid library CC0; details: mean of both orientations
O5 = target: T18, O5; assay: two-hybrid library CC0; details: mean of both orientations
O7 = target: T19, O7; assay: two-hybrid library CC0; details: mean of both orientations
4H87-AA = target: T20, 4H87-AA; assay: two-hybrid library CCmax; details: mean of both orientations
4H510-AA = target: T21, 4H510-AA; assay: two-hybrid library CCmax; details: mean of both orientations
4H816-AA = target: T22, 4H816-AA; assay: two-hybrid library CCmax; details: mean of both orientations
4H775-AA = target: T23, 4H775-AA; assay: two-hybrid library CCmax; details: mean of both orientations
4H2758-AA = target: T24, 4H2758-AA; assay: two-hybrid library CCmax
4H3409-AA = target: T25, 4H3409-AA; assay: two-hybrid library CCmax; details: mean of both orientations
4H2985-AA = target: T26, 4H2985-AA; assay: two-hybrid library CCmax; details: mean of both orientations
4H3940-AA = target: T27, 4H3940-AA; assay: two-hybrid library CCmax; details: mean of both orientations
4H3625-AA = target: T28, 4H3625-AA; assay: two-hybrid library CCmax; details: mean of both orientations
4H390-AA = target: T29, 4H390-AA; assay: two-hybrid library CCmax; details: mean of both orientations
4H2873-AA = target: T30, 4H2873-AA; assay: two-hybrid library CCmax; details: mean of both orientations
4H3134-AA = target: T31, 4H3134-AA; assay: two-hybrid library CCmax; details: mean of both orientations
4H278-AA = target: T32, 4H278-AA; assay: two-hybrid library CCmax; details: mean of both orientations

Binder	interaction score (P2-AA-12HAA-K)	interaction score (P2-AA-12HAA-T)	interaction score (P2-AA-12HAA-D)	interaction score (P2-AA-12HAA-S; mean of both orientations)	interaction score (P2-AA-12HAA-V)	interaction score (P2-AA-12HAA-I)	interaction score (P2-AA)	interaction score (P2-AA-12HAA-H; mean of both orientations)	interaction score (P2-AA-12HAA-L; mean of both orientations)	interaction score (P2-AA-12HAA-E; mean of both orientations)	interaction score (P2-AA-12HAA-Y)	interaction score (P2-AA-12HAA-R; mean of both orientations)	other results
DEIAALEAEDAALEAEDAALEAEIAALEG [P1-AA-12HAA-D]	0.46	-1.11	-1.35	0.438	-0.204	-0.345	-0.884	0.205	-1.19	-1.33	-1.44	1.84	interaction score (P2-AA-12HGe-W): -2.4
DEIAALEAEAAALEAEAAALEAEIAALEG [P1-AA-12HAA-A]	1.48	1.66	-0.675	1.55	1.9	1.82	1.79	2.14	1.84	0.947	2	0.883	–
DEIAALEAEKAALEAEKAALEAEIAALEG [P1-AA-12HAA-K]	-1.33	0.253	-0.759	-0.0454	1.38	1.67	1.75	0.974	–	-0.226	0.916	-0.283	interaction score (P2-AA-12HAA-L): 1.62
DENQELEKKNEELKREIWELEKEIQELEQ [P9bHq]	–	–	–	–	–	–	–	–	–	–	–	–	interaction score (P9bHq): -0.654
ENAALEAEIAALEYKNAALKAEIAALEG [O5]	–	–	–	–	–	–	–	–	–	–	–	–	interaction score (O9): -2.73; interaction score (O8): -2.47; interaction score (O6): 1.41; interaction score (O5): -2.78; interaction score (O7): -2.67
DEIAALEAEEAALEAEEAALEAEIAALEG [P1-AA-12HAA-E]	1.62	0.375	-1.42	0.789	1.49	1.5	1.91	1.59	1.82	-0.819	-0.0466	1.71	–
DEIAALEAEHAALEAEHAALEAEIAALEG [P1-AA-12HAA-H]	0.96	1.16	-1.24	1.07	1.78	1.75	1.85	-0.35	1.83	0.0438	-0.416	-0.0784	–
DKIAALKAENAALKAEIAALEAKIAALKG [4H2758-AA]	–	–	–	–	–	–	–	–	–	–	–	–	interaction score (4H87-AA): -1.35; interaction score (4H510-AA): 0.225; interaction score (4H816-AA): -1.38; interaction score (4H775-AA): -0.652; interaction score (4H2758-AA): 1.56; interaction score (4H3409-AA): -0.325; interaction score (4H2985-AA): 1.59; interaction score (4H3940-AA): -1.45; interaction score (4H3625-AA): -0.393; interaction score (4H390-AA): 0.895; interaction score (4H2873-AA): -0.654; interaction score (4H3134-AA): 0.499; interaction score (4H278-AA): -0.138
DEIAALEAEIAALEAEIAALEAEIAALEG [P1-AA-12HAA-I]	1.78	1.75	1.29	2.16	1.79	2.05	1.8	–	2.28	1.58	1.87	2	interaction score (P2-AA-12HAA-H): 1.79

Now from value to binder, other results behind:

interaction score (P2-AA-12HAA-K)	interaction score (P2-AA-12HAA-T)	interaction score (P2-AA-12HAA-D)	interaction score (P2-AA-12HAA-S; mean of both orientations)	interaction score (P2-AA-12HAA-V)	interaction score (P2-AA-12HAA-I)	interaction score (P2-AA)	interaction score (P2-AA-12HAA-H; mean of both orientations)	interaction score (P2-AA-12HAA-L; mean of both orientations)	interaction score (P2-AA-12HAA-E; mean of both orientations)	interaction score (P2-AA-12HAA-Y)	interaction score (P2-AA-12HAA-R; mean of both orientations)	Binder	other results
1.37	1.56	-1.06	1.33	1.98	1.84	2.07	1.5	1.97	0.124	1.53	–	DEIAALEAETAALEAETAALEAEIAALEG [P1-AA-12HAA-T]	interaction score (P2-AA-12HAA-R): 1.79
-0.626	0.243	-0.753	1.44	1.37	1.45	1.8	0.326	1.95	0.85	0.106	-1.34	DEIAALEAERAALEAERAALEAEIAALEG [P1-AA-12HAA-R]	–
1.6	2.1	1.26	–	2.38	1.68	1.49	1.84	2.35	1.74	1.68	1.7	DEIAALEAELAALEAELAALEAEIAALEG [P1-AA-12HAA-L]	interaction score (P2-AA-12HAA-S): 1.59
1.89	1.76	-0.93	1.85	1.72	1.8	1.97	1.67	2.1	–	2.02	1.4	DEIAALEAEYAALEAEYAALEAEIAALEG [P1-AA-12HAA-Y]	interaction score (P2-AA-12HAA-E): 1.74
1.35	1.86	1.1	1.44	2.21	1.82	2.1	1.25	–	–	1.8	1.69	DEIAALEAEVAALEAEVAALEAEIAALEG [P1-AA-12HAA-V]	interaction score (P2-AA-12HAA-L): 1.78; interaction score (P2-AA-12HAA-E): 1.83
0.951	0.962	-0.855	1.26	1.8	1.69	2.24	1.58	2.15	–	0.635	1.11	DEIAALEAESAALEAESAALEAEIAALEG [P1-AA-12HAA-S]	interaction score (P2-AA-12HAA-E): -0.4
